One test deals with SP1 (UniProt P08047). The experiment in a line: co-immunoprecipitation, western blot. The conditions noted are these: reference: wild type; sites T361,T366,S381,S387.
The next test concerns the target SP3 (UniProt Q02447). Kind of test: co-immunoprecipitation, western blot. The conditions noted are these: reference: wild type; sites T361,T366,S381,S387.

For the substance “ELK4 (from UniProt P28324) 4MA (T361/T366/S381/S387A)”, the “binding against the reference” value with SP1 and in the test with SP3 was “weaker” each time.
